Reference: patent US20140087995A1 (published 2014)
Numbered stars: 1 amine (or outer) side, 2 acyl side, 3 side chain; on linkers, the order of the positions; unused ones are H or OH. Bridge positions count the residues as written; N and C are the ends. Side chains are listed from the residue outwards. Ends that are not written are not given here. * marks the point of attachment. C20 diacid = O=C(O)CCCCCCCCCCCCCCCCCCC(=O)*; γGlu = O=C(O)[C@H](CCC(=O)[*:2])N[*:1]

B1: N^ε1-[(4S)-4-carboxy-4-(19-carboxynonadecanoylamino)butanoyl]-[Ala14,Arg17,Pro21,Pro27,Pro34]-h-amylin (peptide)
peptide: K([γGlu-C20 diacid])CNTATCATQRLAAFLRHSSPNFGAIPSSTNVGPNTY-NH2
modifications: disulfide 2-7; N-terminus assumed
SMILES: CC[C@H](C)[C@H](NC(=O)[C@H](C)NC(=O)CNC(=O)[C@H](Cc1ccccc1)NC(=O)[C@H](CC(N)=O)NC(=O)[C@@H]1CCCN1C(=O)[C@H](CO)NC(=O)[C@H](CO)NC(=O)[C@H](Cc1c[nH]cn1)NC(=O)[C@H](CCCNC(=N)N)NC(=O)[C@H](CC(C)C)NC(=O)[C@H](Cc1ccccc1)NC(=O)[C@H](C)NC(=O)[C@H](C)NC(=O)[C@H](CC(C)C)NC(=O)[C@H](CCCNC(=N)N)NC(=O)[C@H](CCC(N)=O)NC(=O)[C@@H](NC(=O)[C@H](C)NC(=O)[C@@H]1CSSC[C@H](NC(=O)[C@@H](N)CCCCNC(=O)CC[C@H](NC(=O)CCCCCCCCCCCCCCCCCCC(=O)O)C(=O)O)C(=O)N[C@@H](CC(N)=O)C(=O)N[C@@H]([C@@H](C)O)C(=O)N[C@@H](C)C(=O)N[C@@H]([C@@H](C)O)C(=O)N1)[C@@H](C)O)C(=O)N1CCC[C@H]1C(=O)N[C@@H](CO)C(=O)N[C@@H](CO)C(=O)N[C@H](C(=O)N[C@@H](CC(N)=O)C(=O)N[C@H](C(=O)NCC(=O)N1CCC[C@H]1C(=O)N[C@@H](CC(N)=O)C(=O)N[C@H](C(=O)N[C@@H](Cc1ccc(O)cc1)C(N)=O)[C@@H](C)O)C(C)C)[C@@H](C)O
notes: also called compound 94
B2: N^ε1-[(4S)-4-carboxy-4-(19-carboxynonadecanoylamino)butanoyl]-[Asp14,Arg17,Pro21,Pro27,Pro34,Arg35]-h-amylin (peptide)
peptide: K([γGlu-C20 diacid])CNTATCATQRLADFLRHSSPNFGAIPSSTNVGPRTY-NH2
modifications: disulfide 2-7; N-terminus assumed
SMILES: CC[C@H](C)[C@H](NC(=O)[C@H](C)NC(=O)CNC(=O)[C@H](Cc1ccccc1)NC(=O)[C@H](CC(N)=O)NC(=O)[C@@H]1CCCN1C(=O)[C@H](CO)NC(=O)[C@H](CO)NC(=O)[C@H](Cc1c[nH]cn1)NC(=O)[C@H](CCCNC(=N)N)NC(=O)[C@H](CC(C)C)NC(=O)[C@H](Cc1ccccc1)NC(=O)[C@H](CC(=O)O)NC(=O)[C@H](C)NC(=O)[C@H](CC(C)C)NC(=O)[C@H](CCCNC(=N)N)NC(=O)[C@H](CCC(N)=O)NC(=O)[C@@H](NC(=O)[C@H](C)NC(=O)[C@@H]1CSSC[C@H](NC(=O)[C@@H](N)CCCCNC(=O)CC[C@H](NC(=O)CCCCCCCCCCCCCCCCCCC(=O)O)C(=O)O)C(=O)N[C@@H](CC(N)=O)C(=O)N[C@@H]([C@@H](C)O)C(=O)N[C@@H](C)C(=O)N[C@@H]([C@@H](C)O)C(=O)N1)[C@@H](C)O)C(=O)N1CCC[C@H]1C(=O)N[C@@H](CO)C(=O)N[C@@H](CO)C(=O)N[C@H](C(=O)N[C@@H](CC(N)=O)C(=O)N[C@H](C(=O)NCC(=O)N1CCC[C@H]1C(=O)N[C@@H](CCCNC(=N)N)C(=O)N[C@H](C(=O)N[C@@H](Cc1ccc(O)cc1)C(N)=O)[C@@H](C)O)C(C)C)[C@@H](C)O
B3: N^ε1-[(4S)-4-carboxy-4-(19-carboxynonadecanoylamino)butanoyl]-[Glu14,Arg17,Pro21,Pro27,Pro34,Pro37]-h-amylin (peptide)
peptide: K([γGlu-C20 diacid])CNTATCATQRLAEFLRHSSPNFGAIPSSTNVGPNTP-NH2
modifications: disulfide 2-7; N-terminus assumed
SMILES: CC[C@H](C)[C@H](NC(=O)[C@H](C)NC(=O)CNC(=O)[C@H](Cc1ccccc1)NC(=O)[C@H](CC(N)=O)NC(=O)[C@@H]1CCCN1C(=O)[C@H](CO)NC(=O)[C@H](CO)NC(=O)[C@H](Cc1c[nH]cn1)NC(=O)[C@H](CCCNC(=N)N)NC(=O)[C@H](CC(C)C)NC(=O)[C@H](Cc1ccccc1)NC(=O)[C@H](CCC(=O)O)NC(=O)[C@H](C)NC(=O)[C@H](CC(C)C)NC(=O)[C@H](CCCNC(=N)N)NC(=O)[C@H](CCC(N)=O)NC(=O)[C@@H](NC(=O)[C@H](C)NC(=O)[C@@H]1CSSC[C@H](NC(=O)[C@@H](N)CCCCNC(=O)CC[C@H](NC(=O)CCCCCCCCCCCCCCCCCCC(=O)O)C(=O)O)C(=O)N[C@@H](CC(N)=O)C(=O)N[C@@H]([C@@H](C)O)C(=O)N[C@@H](C)C(=O)N[C@@H]([C@@H](C)O)C(=O)N1)[C@@H](C)O)C(=O)N1CCC[C@H]1C(=O)N[C@@H](CO)C(=O)N[C@@H](CO)C(=O)N[C@H](C(=O)N[C@@H](CC(N)=O)C(=O)N[C@H](C(=O)NCC(=O)N1CCC[C@H]1C(=O)N[C@@H](CC(N)=O)C(=O)N[C@H](C(=O)N1CCC[C@H]1C(N)=O)[C@@H](C)O)C(C)C)[C@@H](C)O
B4: N^ε1-[(4S)-4-carboxy-4-(19-carboxynonadecanoylamino)butanoyl]-[His14,Arg17,Pro21,Pro27,Pro34,Pro37]-h-amylin (peptide)
peptide: K([γGlu-C20 diacid])CNTATCATQRLAHFLRHSSPNFGAIPSSTNVGPNTP-NH2
modifications: disulfide 2-7; N-terminus assumed
SMILES: CC[C@H](C)[C@H](NC(=O)[C@H](C)NC(=O)CNC(=O)[C@H](Cc1ccccc1)NC(=O)[C@H](CC(N)=O)NC(=O)[C@@H]1CCCN1C(=O)[C@H](CO)NC(=O)[C@H](CO)NC(=O)[C@H](Cc1c[nH]cn1)NC(=O)[C@H](CCCNC(=N)N)NC(=O)[C@H](CC(C)C)NC(=O)[C@H](Cc1ccccc1)NC(=O)[C@H](Cc1c[nH]cn1)NC(=O)[C@H](C)NC(=O)[C@H](CC(C)C)NC(=O)[C@H](CCCNC(=N)N)NC(=O)[C@H](CCC(N)=O)NC(=O)[C@@H](NC(=O)[C@H](C)NC(=O)[C@@H]1CSSC[C@H](NC(=O)[C@@H](N)CCCCNC(=O)CC[C@H](NC(=O)CCCCCCCCCCCCCCCCCCC(=O)O)C(=O)O)C(=O)N[C@@H](CC(N)=O)C(=O)N[C@@H]([C@@H](C)O)C(=O)N[C@@H](C)C(=O)N[C@@H]([C@@H](C)O)C(=O)N1)[C@@H](C)O)C(=O)N1CCC[C@H]1C(=O)N[C@@H](CO)C(=O)N[C@@H](CO)C(=O)N[C@H](C(=O)N[C@@H](CC(N)=O)C(=O)N[C@H](C(=O)NCC(=O)N1CCC[C@H]1C(=O)N[C@@H](CC(N)=O)C(=O)N[C@H](C(=O)N1CCC[C@H]1C(N)=O)[C@@H](C)O)C(C)C)[C@@H](C)O
B5: N^ε1-[(4S)-4-carboxy-4-[[(4S)-4-carboxy-4-(19-carboxynonadecanoylamino)butanoyl]amino]butanoyl]-[Glu14,Arg17,Pro21,Pro27,Pro34,Glu35,Pro37]-h-amylin (peptide)
peptide: K([γGlu-γGlu-C20 diacid])CNTATCATQRLAEFLRHSSPNFGAIPSSTNVGPETP-NH2
modifications: disulfide 2-7; N-terminus assumed
SMILES: CC[C@H](C)[C@H](NC(=O)[C@H](C)NC(=O)CNC(=O)[C@H](Cc1ccccc1)NC(=O)[C@H](CC(N)=O)NC(=O)[C@@H]1CCCN1C(=O)[C@H](CO)NC(=O)[C@H](CO)NC(=O)[C@H](Cc1c[nH]cn1)NC(=O)[C@H](CCCNC(=N)N)NC(=O)[C@H](CC(C)C)NC(=O)[C@H](Cc1ccccc1)NC(=O)[C@H](CCC(=O)O)NC(=O)[C@H](C)NC(=O)[C@H](CC(C)C)NC(=O)[C@H](CCCNC(=N)N)NC(=O)[C@H](CCC(N)=O)NC(=O)[C@@H](NC(=O)[C@H](C)NC(=O)[C@@H]1CSSC[C@H](NC(=O)[C@@H](N)CCCCNC(=O)CC[C@H](NC(=O)CC[C@H](NC(=O)CCCCCCCCCCCCCCCCCCC(=O)O)C(=O)O)C(=O)O)C(=O)N[C@@H](CC(N)=O)C(=O)N[C@@H]([C@@H](C)O)C(=O)N[C@@H](C)C(=O)N[C@@H]([C@@H](C)O)C(=O)N1)[C@@H](C)O)C(=O)N1CCC[C@H]1C(=O)N[C@@H](CO)C(=O)N[C@@H](CO)C(=O)N[C@H](C(=O)N[C@@H](CC(N)=O)C(=O)N[C@H](C(=O)NCC(=O)N1CCC[C@H]1C(=O)N[C@@H](CCC(=O)O)C(=O)N[C@H](C(=O)N1CCC[C@H]1C(N)=O)[C@@H](C)O)C(C)C)[C@@H](C)O
notes: Synthetic acylated analogue of human amylin
B6: N^ε1-[(4S)-4-carboxy-4-[[(4S)-4-carboxy-4-(19-carboxynonadecanoylamino)butanoyl]amino]butanoyl]-[Glu14,Arg17,Pro21,Pro27,Pro37]-h-amylin (peptide)
peptide: K([γGlu-γGlu-C20 diacid])CNTATCATQRLAEFLRHSSPNFGAIPSSTNVGSNTP-NH2
modifications: disulfide 2-7 (inferred)
notes: Synthetic acylated analogue of human amylin; also called compound 13
B7: N^ε1-[(4S)--4-carboxy-4-(19-carboxynonadecanoylamino)butanoyl]-[Glu14,Arg17,Pro21,Pro27,Pro37]-h-amylin (peptide)
peptide: K([γGlu-C20 diacid])CNTATCATQRLAEFLRHSSPNFGAIPSSTNVGSNTP-NH2
modifications: disulfide 2-7; N-terminus assumed
SMILES: CC[C@H](C)[C@H](NC(=O)[C@H](C)NC(=O)CNC(=O)[C@H](Cc1ccccc1)NC(=O)[C@H](CC(N)=O)NC(=O)[C@@H]1CCCN1C(=O)[C@H](CO)NC(=O)[C@H](CO)NC(=O)[C@H](Cc1c[nH]cn1)NC(=O)[C@H](CCCNC(=N)N)NC(=O)[C@H](CC(C)C)NC(=O)[C@H](Cc1ccccc1)NC(=O)[C@H](CCC(=O)O)NC(=O)[C@H](C)NC(=O)[C@H](CC(C)C)NC(=O)[C@H](CCCNC(=N)N)NC(=O)[C@H](CCC(N)=O)NC(=O)[C@@H](NC(=O)[C@H](C)NC(=O)[C@@H]1CSSC[C@H](NC(=O)[C@@H](N)CCCCNC(=O)CC[C@H](NC(=O)CCCCCCCCCCCCCCCCCCC(=O)O)C(=O)O)C(=O)N[C@@H](CC(N)=O)C(=O)N[C@@H]([C@@H](C)O)C(=O)N[C@@H](C)C(=O)N[C@@H]([C@@H](C)O)C(=O)N1)[C@@H](C)O)C(=O)N1CCC[C@H]1C(=O)N[C@@H](CO)C(=O)N[C@@H](CO)C(=O)N[C@H](C(=O)N[C@@H](CC(N)=O)C(=O)N[C@H](C(=O)NCC(=O)N[C@@H](CO)C(=O)N[C@@H](CC(N)=O)C(=O)N[C@H](C(=O)N1CCC[C@H]1C(N)=O)[C@@H](C)O)C(C)C)[C@@H](C)O
notes: Synthetic acylated analogue of human amylin; also called compound 12

These binders were tested against T1, human amylin receptor (amylin 3(a) receptor: human calcitonin receptor co-expressed with RAMP-3) (human, UniProt P30988 25-474; O60896 24-148, limits assumed) (assay: SPA displacement of 125I-rat amylin, hAmylin 3(a) receptor membranes).
T1 construct: whole, on cells; Used as cell membranes prepared from the Amylin 3(a)/CRE-luc BHK cells (Assay V); also called hAmylin-R; hAmylinR
T1 sequence (looked up) 1: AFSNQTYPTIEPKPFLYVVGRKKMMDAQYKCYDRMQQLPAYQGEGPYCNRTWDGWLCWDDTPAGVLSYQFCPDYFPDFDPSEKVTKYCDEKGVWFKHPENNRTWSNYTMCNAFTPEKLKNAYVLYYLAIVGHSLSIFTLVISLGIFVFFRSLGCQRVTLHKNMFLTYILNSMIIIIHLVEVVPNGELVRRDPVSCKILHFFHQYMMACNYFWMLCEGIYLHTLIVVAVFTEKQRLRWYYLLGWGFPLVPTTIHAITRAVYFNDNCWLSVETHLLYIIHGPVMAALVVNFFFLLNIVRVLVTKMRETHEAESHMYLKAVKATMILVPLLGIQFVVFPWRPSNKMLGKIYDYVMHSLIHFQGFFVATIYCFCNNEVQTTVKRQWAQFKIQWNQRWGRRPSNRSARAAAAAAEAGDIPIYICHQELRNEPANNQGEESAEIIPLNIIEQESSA
T1 sequence (looked up) 2: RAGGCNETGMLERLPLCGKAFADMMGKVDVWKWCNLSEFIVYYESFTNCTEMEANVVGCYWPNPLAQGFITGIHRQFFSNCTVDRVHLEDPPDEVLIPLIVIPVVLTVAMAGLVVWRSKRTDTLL
How it was run: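 SPA beads + BHK amylin 3(a)/CRE-luc membranes, 35 ng/μL final; buffer 50 mM Hepes pH 7.4, 1 mM CaCl2, 5 mM MgCl₂, 0.1% OA, 0.02% Tween20. 120 min, 25° C, shaken; scintillation count. IC₅₀ by one-site binding competition fit, taken as receptor affinity.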

Binder	IC50 [nM]
B1	0.148
B2	0.281
B3	0.214
B4	0.131
K([γGlu-γGlu-C20 diacid])CNTATCATQRLADFLRHSSPNFGAIPSSTNVGPRTY-NH2 (disulfide 2-7, also called compound 130)	0.453

What follows are binders tested against T2, human calcitonin receptor (human, UniProt P30988 25-474) (assay: cell-based or functional assay).
T2 sequence (looked up): T1 sequence (looked up) 1

Binder	hCTR funct. EC50 (CRE luciferase reporter, BHK cells) [pM]
B5	102
B6	470
B7	185
